What was measured:
purified protein [1] = substrate: O=C(O)C(=O)CS(=O)(=O)O; experiment: purified protein; assay type: biochemical, Methanobrevibacter millerae; conditions: reduction reaction, 400 μM NADH, 400 mM KCl, 50 mM BTP pH 6.5, 37°C
purified protein [2] = substrate: NC(=O)C1=CN([C@@H]2O[C@H](COP(=O)(O)OP(=O)(O)OC[C@H]3O[C@@H](n4cnc5c(N)ncnc54)[C@H](O)[C@@H]3O)[C@@H](O)[C@H]2O)C=CC1; experiment: purified protein; assay type: biochemical, Methanobrevibacter millerae; conditions: reduction reaction, 500 μM sulfopyruvate, 400 mM KCl, 50 mM BTP pH 6.5, 37°C, varied: cofactor

B1: ComC ((R)-sulfolactate dehydrogenase) (Methanobrevibacter millerae) (protein)
chain: MKIMKDNEIALVKEILKKLGASEEDCELVAEATIDADLKGFTSHGLGRFPQYLISIEAGTINLEDNITIEKETPAIALINGNSGFGQAVSYKAMQIAIKKAKEVGIGCVGVHNTNHFGVTGFYSDLALRENVIGMVIANTDPAIAPLGGKEALIGTNPIAIGIPSETYITVDMATSVTARGKIIESRRKGLDLPEGWALDKDGNPTTDPEAALDGGSILPFGGFKGYALALMVEILTGPLVQAGYGTGVTGTASPTKDCTKGDLYIAIDPSKFGDFGDFVANTEDFVSQVRATGETVAIPGDLEVKRIAEAEENGIEIDAKLYEQLKGICDDLDIDIDSYLED
notes: full-length, His-tagged (pET151D TOPO, E. coli Rosetta 2), tag kept, 376 residues and 40104 Da with tag; dimer (75 kDa by gel filtration); primers encode N-terminus MKIMKDNE and C-terminus DIDSYLED
**Q.** For B1, which Km (purified protein [1]) is on record?
**A.** The Km was 196 ± 71 µM.

**Q.** What about the Vmax (purified protein [1]) of the same protein?
**A.** The Vmax was 93.9 µmol/min/mg.

**Q.** What about the kcat (purified protein [1]) of the same protein?
**A.** Its kcat is 62.8 ± 9.7 s⁻¹.

**Q.** What about the Km (purified protein [2]) of the same protein?
**A.** Its Km is 55.1 ± 7.6 µM.

**Q.** What about the Vmax (purified protein [2]) of the same protein?
**A.** The Vmax was 73.1 µmol/min/mg.

**Q.** What about the kcat (purified protein [2]) of the same protein?
**A.** The kcat was 48.9 ± 2.2 s⁻¹.

From paper PMC5695019, “Expression, Purification, and Characterization of (R)-Sulfolactate Dehydrogenase (ComC) from the Rumen Methanogen Methanobrevibacter millerae SM9” (Archaea, 2017)
